Biological target: T1, recombinant monomeric CD123 ectodomain (ECD) with an affinity tag on the C-terminus (UniProt P26951 19-305)
T1 construct: extracellular domain; also called CD123 ECD; extracellular domain of CD123
T1 sequence (looked up): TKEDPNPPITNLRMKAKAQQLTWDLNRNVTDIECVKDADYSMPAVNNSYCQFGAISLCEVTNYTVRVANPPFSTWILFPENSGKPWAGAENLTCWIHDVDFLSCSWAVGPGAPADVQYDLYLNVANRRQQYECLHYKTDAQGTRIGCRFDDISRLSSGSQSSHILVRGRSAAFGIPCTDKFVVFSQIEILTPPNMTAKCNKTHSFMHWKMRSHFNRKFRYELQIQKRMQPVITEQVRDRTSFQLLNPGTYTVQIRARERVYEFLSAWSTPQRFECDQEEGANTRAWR
Test: SPR (Biacore T200), bispecific captured by anti-human Fc F(ab')2, CD123 ECD 3-48 nM as analyte, 25 °C, 1:1 model
Description: SPR binding studies of bispecific molecules to recombinant monomeric CD123 ectodomain (ECD) were conducted at 25° C. in HBS-EP+ buffer. […] The bispecific molecules at 200 nM in HBS-EP+ buffer were captured by the immobilized anti-Fc F(ab′)2 fragment at a flow rate of 30 μL/min for 120 sec to reach a stable 2000 RU response. […] Optimal regeneration was achieved by one injection of 10 mM glycine (pH 1.7) at a flow rate of 30 μL/min for 15 sec followed by one injection of 50 mM NaOH at 30 μL/min for 15 sec. A two minute stabilization with HBS-EP+ buffer was completed before the subsequent run.
Sensorgrams obtained from kinetic SPR measurements were analyzed by the double subtraction method. The signal from the reference flow cell was subtracted from the analyte binding response obtained from flow cells with immobilized or captured ligands. Buffer reference responses were then averaged from multiple injections. […] All sensorgrams were fitted using a simple one-to-one binding model.

Kd: 11.4 nM
koff: 0.00205 s⁻¹
kon: 179000 M⁻¹ s⁻¹
B1: OMT1 VHVL x TSC456 scFv-Fc-scFv TRI129 (bispecific antibody)
chain: EVQLLESGGGLVQPGGSLRLSCAASGFTFSSYGMSWVRQAPGKGLEGVSAISGSGGSTYYADSVKGRFTISRDNSKNTLYLQMNSLRAEDTAVYYCAKEKLRYFDWLSDAFDIWGQGTMVTVSSGGGGSGGGGSGGGGSGGGGSDIVMTQSPDSLAVSLGERATINCKSSHSVLYSSNNKNYLAWYQQKPGQPPKLLIYWASTRESGVPDRFSGSGSGTDFTLTISSLQAEDVAVYYCQQYYSTPPTTFGGGTKVEIKSSSEPKSSDKTHTCPPCPAPEAAGAPSVFLFPPKPKDTLMISRTPEVTCVVVDVSHEDPEVKFNWYVDGVEVHNAKTKPREEQYNSTYRVVSVLTVLHQDWLNGKEYKCAVSNKALPAPIEKTISKAKGQPREPQVYTLPPSRDELTKNQVSLTCLVKGFYPSDIAVEWESNGQPENNYKTTPPVLDSDGSFFLYSKLTVDKSRWQQGNVFSCSVMHEALHNHYTQKSLSLSPGSGGGGSGGGGSGGGGSPSQVQLVQSGPEVKKPGSSVKVSCKASGYTFSRSTMHWVRQAPGQGLEWIGYINPSSAYTNYNQKFKDRVTITADKSTSTAYMELSSLRSEDTAVYYCARPQVHYDYNGFPYWGQGTLVTVSSGGGGSGGGGSGGGGSGGGGSDIQMTQSPSTLSASVGDRVTMTCSASSSVSYMNWYQQKPGKAPKRWIYDSSKLASGVPSRFSGSGSGTDYTLTISSLQPDDFATYYCQQWSRNPPTFGGGTKVEIKRS
notes: Single-chain scFv-Fc-scFv, anti-CD123 (OMT1, VH-VL) x anti-CD3ε (TSC456)

From US20260234254A1 (APTEVO RESEARCH AND DEVELOPMENT, published 2026)
